Assay [1] concerns the target αIIbβ3 integrin, P08514. The assay can be described thus: inhibition of adhesion of A5 cells to fibrinogen.
The target in assay [2] is α4β1 integrin, P13612. The experiment in a line: inhibition of adhesion of Jurkat cells to VCAM-1.
Assay [3] deals with T1, αvβ3 integrin, P06756.
T1 chain 1: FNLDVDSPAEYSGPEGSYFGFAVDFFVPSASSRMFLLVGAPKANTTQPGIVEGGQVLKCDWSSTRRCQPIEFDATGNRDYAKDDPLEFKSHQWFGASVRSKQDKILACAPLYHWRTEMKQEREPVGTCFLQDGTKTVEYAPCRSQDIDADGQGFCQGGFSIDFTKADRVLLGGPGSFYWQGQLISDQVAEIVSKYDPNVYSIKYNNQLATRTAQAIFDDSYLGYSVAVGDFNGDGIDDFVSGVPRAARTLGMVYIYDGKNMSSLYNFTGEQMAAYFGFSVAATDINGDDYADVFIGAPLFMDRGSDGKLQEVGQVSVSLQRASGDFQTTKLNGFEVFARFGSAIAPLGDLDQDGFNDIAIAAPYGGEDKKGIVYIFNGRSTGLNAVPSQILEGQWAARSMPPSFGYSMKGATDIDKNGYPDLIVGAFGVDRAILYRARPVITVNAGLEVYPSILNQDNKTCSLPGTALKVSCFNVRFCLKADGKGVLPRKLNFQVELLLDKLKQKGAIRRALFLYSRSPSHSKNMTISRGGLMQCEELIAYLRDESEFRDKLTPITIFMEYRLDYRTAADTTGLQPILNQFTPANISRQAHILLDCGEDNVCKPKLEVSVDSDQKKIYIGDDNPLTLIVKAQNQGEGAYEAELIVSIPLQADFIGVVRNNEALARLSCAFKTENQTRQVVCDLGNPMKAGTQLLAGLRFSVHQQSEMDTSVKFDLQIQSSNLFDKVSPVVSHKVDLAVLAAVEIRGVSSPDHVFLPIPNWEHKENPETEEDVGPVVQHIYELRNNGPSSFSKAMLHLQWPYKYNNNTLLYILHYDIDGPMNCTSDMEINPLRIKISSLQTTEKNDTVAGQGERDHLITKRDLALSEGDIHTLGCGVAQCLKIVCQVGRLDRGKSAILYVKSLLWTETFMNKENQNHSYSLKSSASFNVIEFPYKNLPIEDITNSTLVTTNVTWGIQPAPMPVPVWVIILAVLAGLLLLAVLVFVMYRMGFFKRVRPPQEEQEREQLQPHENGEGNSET
T1 chain 2: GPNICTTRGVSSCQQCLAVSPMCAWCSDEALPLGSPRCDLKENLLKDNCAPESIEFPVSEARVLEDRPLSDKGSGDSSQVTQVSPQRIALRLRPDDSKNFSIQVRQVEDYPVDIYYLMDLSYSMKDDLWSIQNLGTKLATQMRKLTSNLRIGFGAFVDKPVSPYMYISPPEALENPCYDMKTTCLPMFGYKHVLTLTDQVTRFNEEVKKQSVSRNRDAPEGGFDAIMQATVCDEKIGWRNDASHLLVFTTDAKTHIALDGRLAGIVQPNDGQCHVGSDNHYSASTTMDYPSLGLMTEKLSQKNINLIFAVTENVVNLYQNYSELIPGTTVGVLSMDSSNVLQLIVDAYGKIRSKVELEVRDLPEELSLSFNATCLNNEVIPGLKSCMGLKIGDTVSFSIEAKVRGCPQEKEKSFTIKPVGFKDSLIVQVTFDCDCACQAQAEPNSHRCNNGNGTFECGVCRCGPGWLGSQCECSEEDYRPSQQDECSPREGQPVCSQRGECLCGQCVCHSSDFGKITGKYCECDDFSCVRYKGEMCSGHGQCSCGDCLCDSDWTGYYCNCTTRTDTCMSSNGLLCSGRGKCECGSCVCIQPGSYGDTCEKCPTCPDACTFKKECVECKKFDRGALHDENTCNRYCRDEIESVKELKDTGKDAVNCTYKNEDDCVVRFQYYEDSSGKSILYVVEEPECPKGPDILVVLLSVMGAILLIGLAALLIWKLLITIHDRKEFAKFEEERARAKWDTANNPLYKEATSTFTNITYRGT
The assay can be described thus: inhibition of adhesion of JY cells to vitronectin.

Assay [4] deals with α9β1 integrin, Q13797. The experiment in a line: inhibition of adhesion of SW480α9 cells to VCAM-1.
For assay [5], the target named is α5β1 integrin, P08648. The assay can be described thus: inhibition of adhesion of K562 cells to fibronectin.
Target sequence in this assay (P08648 42-1049): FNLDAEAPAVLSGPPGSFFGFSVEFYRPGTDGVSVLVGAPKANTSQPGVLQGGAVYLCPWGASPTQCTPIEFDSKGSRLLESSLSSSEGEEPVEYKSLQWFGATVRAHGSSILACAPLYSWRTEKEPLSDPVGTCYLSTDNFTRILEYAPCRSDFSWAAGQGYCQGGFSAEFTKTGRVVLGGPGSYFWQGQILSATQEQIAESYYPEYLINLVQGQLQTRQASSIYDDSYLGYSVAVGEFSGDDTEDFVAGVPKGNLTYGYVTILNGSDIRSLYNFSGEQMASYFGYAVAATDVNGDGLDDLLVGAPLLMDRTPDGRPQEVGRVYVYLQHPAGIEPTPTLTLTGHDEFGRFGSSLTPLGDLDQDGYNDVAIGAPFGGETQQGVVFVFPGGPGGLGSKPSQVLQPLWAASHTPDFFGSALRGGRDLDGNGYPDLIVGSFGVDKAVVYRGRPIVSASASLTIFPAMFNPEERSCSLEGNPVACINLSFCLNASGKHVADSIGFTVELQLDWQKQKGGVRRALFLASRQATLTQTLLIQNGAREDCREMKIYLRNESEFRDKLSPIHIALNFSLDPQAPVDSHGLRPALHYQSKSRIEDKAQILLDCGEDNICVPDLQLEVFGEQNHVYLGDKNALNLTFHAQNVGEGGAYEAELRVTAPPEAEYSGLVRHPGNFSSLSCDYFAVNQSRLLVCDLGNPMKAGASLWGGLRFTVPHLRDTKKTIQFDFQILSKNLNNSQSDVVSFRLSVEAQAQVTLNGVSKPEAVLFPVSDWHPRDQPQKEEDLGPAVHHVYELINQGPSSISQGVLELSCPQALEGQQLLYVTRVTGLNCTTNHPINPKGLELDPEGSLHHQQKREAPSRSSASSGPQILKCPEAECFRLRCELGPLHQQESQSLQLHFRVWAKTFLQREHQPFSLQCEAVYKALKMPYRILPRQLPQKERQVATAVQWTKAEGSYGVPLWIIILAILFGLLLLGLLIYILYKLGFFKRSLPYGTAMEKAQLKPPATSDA
Assay [6] addresses α5β1 integrin, P08648. Described as above. The source holds these as a separate data set.
Target sequence in this assay (P08648 42-1049, chain 1 of 2): as the sequence (P08648 42-1049) above
Target sequence in this assay (P05556 21-798, chain 2 of 2, further chain): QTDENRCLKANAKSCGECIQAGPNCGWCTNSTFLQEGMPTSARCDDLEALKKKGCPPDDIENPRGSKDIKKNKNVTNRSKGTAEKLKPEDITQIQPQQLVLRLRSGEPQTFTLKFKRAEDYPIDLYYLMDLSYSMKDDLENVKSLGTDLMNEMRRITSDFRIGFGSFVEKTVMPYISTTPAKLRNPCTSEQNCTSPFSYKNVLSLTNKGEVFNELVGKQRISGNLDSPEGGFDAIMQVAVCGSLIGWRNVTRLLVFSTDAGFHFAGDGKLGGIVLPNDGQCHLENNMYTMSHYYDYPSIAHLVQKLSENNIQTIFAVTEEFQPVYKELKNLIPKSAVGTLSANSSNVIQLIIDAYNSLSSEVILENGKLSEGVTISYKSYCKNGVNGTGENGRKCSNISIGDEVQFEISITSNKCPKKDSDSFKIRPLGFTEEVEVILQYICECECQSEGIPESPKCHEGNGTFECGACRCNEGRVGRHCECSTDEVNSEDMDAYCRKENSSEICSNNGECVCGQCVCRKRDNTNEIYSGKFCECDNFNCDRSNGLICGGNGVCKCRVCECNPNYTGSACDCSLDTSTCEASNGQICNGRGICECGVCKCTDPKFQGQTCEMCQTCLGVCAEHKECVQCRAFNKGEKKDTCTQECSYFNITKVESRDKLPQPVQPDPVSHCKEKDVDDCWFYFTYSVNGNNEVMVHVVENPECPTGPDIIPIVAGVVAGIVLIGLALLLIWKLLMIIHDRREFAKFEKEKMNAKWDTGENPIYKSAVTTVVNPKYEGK
Assay [7] concerns the target α2β1 integrin, P17301. The experiment in a line: inhibition of adhesion of α2K562 cells to collagen I.
Assay [8] deals with human α1β1 integrin (human), P56199. The assay can be described thus: inhibition of adhesion of α1K562 cells to collagen I.
Assay [9] has the same target. The assay can be described thus: inhibition of adhesion of α1K562 cells to collagen IV.
Assay [10] addresses T2, mouse α1β1 integrin (mouse), Q3V3R4.
T2 chain 1: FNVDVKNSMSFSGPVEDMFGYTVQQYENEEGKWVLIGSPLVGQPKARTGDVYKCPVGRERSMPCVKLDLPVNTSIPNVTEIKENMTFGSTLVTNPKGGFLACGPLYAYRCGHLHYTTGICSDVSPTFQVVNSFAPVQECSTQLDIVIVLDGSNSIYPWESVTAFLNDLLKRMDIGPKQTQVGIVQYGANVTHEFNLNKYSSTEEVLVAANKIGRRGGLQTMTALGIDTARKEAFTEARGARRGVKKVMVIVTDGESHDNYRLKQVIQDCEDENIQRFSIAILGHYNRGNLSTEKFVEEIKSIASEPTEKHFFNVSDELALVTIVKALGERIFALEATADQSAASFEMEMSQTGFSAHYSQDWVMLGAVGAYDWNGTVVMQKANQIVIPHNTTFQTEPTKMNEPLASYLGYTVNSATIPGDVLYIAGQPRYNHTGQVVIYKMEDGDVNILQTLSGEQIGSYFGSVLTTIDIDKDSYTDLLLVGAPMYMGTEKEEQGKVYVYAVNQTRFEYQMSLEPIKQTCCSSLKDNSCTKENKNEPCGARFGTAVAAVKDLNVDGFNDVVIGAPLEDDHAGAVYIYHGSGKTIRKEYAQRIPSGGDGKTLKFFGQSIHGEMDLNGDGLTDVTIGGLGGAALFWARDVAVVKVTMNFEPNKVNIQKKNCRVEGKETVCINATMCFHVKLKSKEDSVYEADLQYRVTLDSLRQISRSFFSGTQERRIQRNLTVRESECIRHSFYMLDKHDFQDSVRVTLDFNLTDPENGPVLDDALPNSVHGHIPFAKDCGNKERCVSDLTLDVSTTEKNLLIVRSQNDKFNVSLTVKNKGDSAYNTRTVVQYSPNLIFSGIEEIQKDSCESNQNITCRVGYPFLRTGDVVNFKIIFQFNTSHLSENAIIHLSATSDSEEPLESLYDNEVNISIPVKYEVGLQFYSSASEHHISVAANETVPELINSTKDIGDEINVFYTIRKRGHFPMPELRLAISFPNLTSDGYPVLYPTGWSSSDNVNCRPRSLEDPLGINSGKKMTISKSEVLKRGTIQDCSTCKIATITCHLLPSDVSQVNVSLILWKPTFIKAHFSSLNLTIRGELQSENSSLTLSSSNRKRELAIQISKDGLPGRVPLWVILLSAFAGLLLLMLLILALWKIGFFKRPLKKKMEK
T2 chain 2: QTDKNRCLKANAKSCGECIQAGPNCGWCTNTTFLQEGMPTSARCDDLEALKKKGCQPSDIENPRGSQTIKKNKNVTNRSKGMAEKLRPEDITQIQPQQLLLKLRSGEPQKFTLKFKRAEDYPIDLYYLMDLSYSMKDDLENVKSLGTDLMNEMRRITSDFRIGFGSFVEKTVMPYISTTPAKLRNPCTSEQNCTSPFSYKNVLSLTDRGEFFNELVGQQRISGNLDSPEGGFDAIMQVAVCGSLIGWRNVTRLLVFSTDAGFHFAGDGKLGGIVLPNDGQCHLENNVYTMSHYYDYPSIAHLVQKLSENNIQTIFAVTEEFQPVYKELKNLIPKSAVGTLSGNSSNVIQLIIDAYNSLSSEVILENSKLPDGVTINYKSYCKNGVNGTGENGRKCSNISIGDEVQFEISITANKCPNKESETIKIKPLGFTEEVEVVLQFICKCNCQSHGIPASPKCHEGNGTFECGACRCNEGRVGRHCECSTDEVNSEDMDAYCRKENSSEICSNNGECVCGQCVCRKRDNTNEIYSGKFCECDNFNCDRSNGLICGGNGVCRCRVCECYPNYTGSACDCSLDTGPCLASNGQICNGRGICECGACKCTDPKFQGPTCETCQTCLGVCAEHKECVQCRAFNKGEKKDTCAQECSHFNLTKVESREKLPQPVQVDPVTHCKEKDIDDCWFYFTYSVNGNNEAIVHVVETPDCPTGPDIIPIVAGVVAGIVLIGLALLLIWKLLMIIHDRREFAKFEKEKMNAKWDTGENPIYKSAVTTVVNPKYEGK
The assay can be described thus: inhibition of adhesion of B16F10 cells to collagen IV.

Assay [11] deals with human α1β1 integrin (human), P56199. The assay can be described thus: inhibition of adhesion of HS.939T cells to collagen IV.
Assay [12] has the same target. The experiment in a line: inhibition of adhesion of α1K562 cells to immobilised collagen IV.
Assay [13] deals with αIIbβ3 integrin, P08514. The experiment in a line: inhibition of adhesion of A5 cells to fibrinogen. This is another data set of the same source.

Consider five molecules from US20030186334A1, “KTS-disintegrins” (Temple University - Of the Commonwealth System of Higher …, priority 2001, published 2003).

Like-named read-outs stand apart in the source and are kept apart here.

α9β1 integrin, Q13797, sequence (Q13797 30-1035): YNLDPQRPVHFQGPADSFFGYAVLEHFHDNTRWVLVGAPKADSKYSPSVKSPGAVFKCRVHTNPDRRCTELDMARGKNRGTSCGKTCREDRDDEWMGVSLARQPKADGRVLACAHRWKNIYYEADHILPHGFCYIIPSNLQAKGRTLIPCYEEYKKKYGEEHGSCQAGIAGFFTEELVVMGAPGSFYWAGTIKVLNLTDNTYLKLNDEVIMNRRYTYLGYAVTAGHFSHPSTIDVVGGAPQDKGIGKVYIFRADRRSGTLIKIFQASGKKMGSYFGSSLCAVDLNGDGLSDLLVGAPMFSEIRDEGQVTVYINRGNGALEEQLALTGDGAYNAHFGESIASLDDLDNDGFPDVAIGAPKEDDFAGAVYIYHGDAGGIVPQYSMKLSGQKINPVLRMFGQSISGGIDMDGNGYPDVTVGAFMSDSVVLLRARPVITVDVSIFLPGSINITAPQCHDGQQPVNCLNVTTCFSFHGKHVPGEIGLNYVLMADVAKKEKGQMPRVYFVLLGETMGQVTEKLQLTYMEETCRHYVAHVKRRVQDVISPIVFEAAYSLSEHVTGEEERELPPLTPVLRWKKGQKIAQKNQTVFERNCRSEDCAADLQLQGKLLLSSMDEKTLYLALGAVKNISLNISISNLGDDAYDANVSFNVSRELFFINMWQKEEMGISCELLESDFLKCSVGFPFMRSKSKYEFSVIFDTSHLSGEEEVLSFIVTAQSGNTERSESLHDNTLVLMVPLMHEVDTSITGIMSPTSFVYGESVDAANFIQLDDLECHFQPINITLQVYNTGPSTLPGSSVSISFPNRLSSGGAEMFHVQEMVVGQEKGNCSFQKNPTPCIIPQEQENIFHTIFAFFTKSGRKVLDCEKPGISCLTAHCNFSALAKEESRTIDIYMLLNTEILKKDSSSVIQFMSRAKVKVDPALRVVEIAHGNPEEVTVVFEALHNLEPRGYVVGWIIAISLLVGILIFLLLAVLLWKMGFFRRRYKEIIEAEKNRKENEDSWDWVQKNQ

As for CTTGPCCRQCKLKPAGTTCWKTSLTSHYCTGKSCDCPLYPG (modifications not checked) [obtustatin], the IC50 (in general, the point on the concentration scale where inhibition reaches its midpoint) in assay [1] was more than 10000 nM; in [2] it was more than 10 µM; in [3], more than 10000 nM; in [4], more than 10 µM; in assay [5] it was more than 10 µM; in [6], more than 5 µM. Moreover, the IC50 is more than 10 µM in assay [7]; 0.5 nM in assay [8]; 2 nM in assay [9]; 0.2 nM in assay [10]; 0.1 nM in [11]; 0.002 µM in assay [12].
On to CTTGPCCRQCKLKPAGTTCWKTSRTSHYCTGKSCDCPVYQG (modifications not checked) [viperisrastatin], for which the IC50 is more than 10 µM in assay [2]; more than 10000 nM in assay [13]; more than 10000 nM in assay [3]; more than 10 µM in assay [4]; more than 10 µM in [6]; more than 10 µM in [7]. In addition, the IC50 in assay [8] came out at 0.02 nM; in [9] it was 0.08 nM; in [10], 0.25 nM; in assay [11] it was 0.002 nM.
With QEEPCATGPCCRRCKFKRAGKVCRVARGDWNDDYCTGKSCDCPKNPWNG (modifications not checked) [eristostatin, P0C6S4 1-49], the IC50 in assay [1] was 5 nM; in assay [2], more than 10 µM; in assay [13] it was 50 nM; in assay [3], 2000 nM; in assay [4] it was more than 10 µM; in assay [5], more than 10 µM. Also, the IC50 in [7] is more than 10 µM; in assay [8], more than 10000 nM; in [9] it was more than 10000 nM; in [10], more than 10000 nM; in assay [11] it was more than 10000 nM.
For the molecule QCESGPCCRNCKFLKEGTICKRARGDDMDDYCNGKTCDCPRNPHKGPAT (modifications not checked) [echistatin, P17347 131-179], the IC50 in [1] is 50 nM; in assay [2], more than 10 µM; in assay [3], 0.1 nM; in assay [4] it was more than 10 µM; in [5] it was 0.05 µM; in assay [7], more than 10 µM. The IC50 in [8], in assay [9], in assay [10] and in assay [11] was more than 10000 nM throughout.
With CWKTSLTSHYC (modifications not checked) [synthetic peptide … (SEQ ID NO: 5)], the IC50 in assay [12] was 600 µM.
